Test results from patent US20150266949A1 (INFLARX, published 2015).

T1: human C5a (human, UniProt P01031 678-751)
T1 sequence: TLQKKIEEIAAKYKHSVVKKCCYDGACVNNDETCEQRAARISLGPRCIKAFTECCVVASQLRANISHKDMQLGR


Columns and labels:
human C5a [1] = biological target: T1, human C5a; experiment: cell-based or functional assay
human C5a [2] = biological target: T1, human C5a; experiment: cell-based or functional assay; remark: listed apart in the source
human C5a [3] = biological target: T1, human C5a; experiment: method not stated (Table 3, column Affinity)

Binder	Blocking activity (inhibition of C5a-induced lysozyme release from human whole blood cells) at a ratio of Ab to C5a of ½:1 (human C5a [1])	blocking activity to C5a bioactivity (C5a-induced lysozyme release assay), molar ratio of antibody to C5a 1:2 (human C5a [2])	Kd (human C5a [3])
INab308 (antibody, V domains shown, Mouse monoclonal antibody from a hybridoma (BALB/c mice immunized with recombinant human C5a), purified from ascites on protein A; said to be bivalent) VH: QVQLQQSGPQLVRPGTSVKISCKASGYSFTTFWMDWVKQRPGQGLEWIGRIDPSDSESRLDQRFKDRATLTVDKSSSTVYMQLSSPTSEDSAVYYCARGNDGYYGFAYWGQGTLVTVSS VL: DIVLTQSPASLAVSLGQRATISCKASQSVDYDGDSYMKWYQQKPGQPPKLLIYAASNLQSGIPARFSGSGSGTDFTLNIHPVEEEDAATYYCQQSNEDPYTFGGGTKLEIK	≥ 90%	94%	0.5 nM
INab708 (antibody, V domains shown, Mouse monoclonal antibody from a hybridoma (BALB/c mice immunized with recombinant human C5a), purified from ascites on protein A; said to be bivalent) VH: VQLLESGAELMKPGASVKISCKATGNTFSGYWIEWVKQRPGHGLEWIGEILPGSGSTNYNEKFKGKATLTADTSSNTAYMQLSSLTSEDSAVYYCTRRGLYDGSSYFAYWGQGTLVTVSA VL: DIVLTQSPASLAVSLGQRATISCKASQSVDYDGDSYMNWYQQKPGQPPKLLIYAASNLGSGIPARFSGSGSGTDFTLNIHPVEEEVAATYYCQQNNEDPLTFGAGTLLELK	≥ 90%	100%	0.51 nM
